Reference: US20250171562A1 (ALK ABELL, published 2025)

Target: T1, recombinant human IgE (human, UniProt P01854-1 1-428)
T1 construct: made in-house (ALK); preloaded on immobilised FcεRIα in the displacement ELISA
Experiment: IgE-FcεRIα displacement ELISA
Procedure, shortened: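 Streptavidin-coated plates carried site-specifically biotinylated recombinant human FcεRIα, loaded with recombinant human IgE at 13 ng/ml. sdAbs in a pM–μM series were added for 1 h, and displaced IgE was washed off. Percent displacement was the signal reduction versus the no-sdAb control, giving EC50 and maximal effect.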

T1 sequence (P01854 other isoform, or with tags, fused parts or gaps): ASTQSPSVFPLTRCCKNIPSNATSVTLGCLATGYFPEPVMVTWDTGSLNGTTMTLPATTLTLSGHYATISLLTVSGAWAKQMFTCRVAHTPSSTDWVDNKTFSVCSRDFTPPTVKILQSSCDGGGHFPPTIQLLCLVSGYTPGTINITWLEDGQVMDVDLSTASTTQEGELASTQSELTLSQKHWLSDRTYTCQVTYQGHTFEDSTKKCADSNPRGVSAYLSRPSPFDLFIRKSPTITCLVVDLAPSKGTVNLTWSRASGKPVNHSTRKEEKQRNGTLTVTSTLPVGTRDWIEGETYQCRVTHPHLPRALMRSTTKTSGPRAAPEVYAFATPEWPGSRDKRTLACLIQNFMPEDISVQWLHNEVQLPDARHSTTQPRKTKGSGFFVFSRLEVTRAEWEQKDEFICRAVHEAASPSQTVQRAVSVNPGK

Row | Max effect [%] | EC50 [nM] | Binder
1 | 35 | – | CIgG4D2A1(RS) (Fc fusion) chain 1: GPPCPPCPAPEFLGGPSVFLFPPKPKDTLMISRTPEVTCVVVDVSQEDPEVQFNWYVDGVEVHNAKTKPREEQFNSTYRVVSVLTVLHQDWLNGKEYKCKVSNKGLPSSIEKTISKAKGQPREPQVYTLPPCQEEMTKNQVSLWCLVKGFYPSDIAVEWESNGQPENNYKTTPPVLDSDGSFFLYSRLTVDKSRWQEGNVFSCSVMHEALHNHYTQKSLSLSLGKRSDVQLQESGGGLVEAGGSLRLSCVASGRTFSGWSMGWFRQAPGKEREFVAAISWVGSWIGGTVYSNSVKGRFTISRDNARTTVYLQMNSLKPEDTAVYFCAAANSETPRIFASEYDYWGQGTQVTVS chain 2: GPPCPPCPAPEFLGGPSVFLFPPKPKDTLMISRTPEVTCVVVDVSQEDPEVQFNWYVDGVEVHNAKTKPREEQFNSTYRVVSVLTVLHQDWLNGKEYKCKVSNKGLPSSIEKTISKAKGQPREPQVCTLPPSQEEMTKNQVSLSCAVKGFYPSDIAVEWESNGQPENNYKTTPPVLDSDGSFFLVSRLTVDKSRWQEGNVFSCSVMHEALHNHYTQKSLSLSLGKRSEVQLLESGGGLVQPGGSLRLSCAASGFTFGNYDMAWVRQAPGKRPEWVSSIDTGGDITHYADSVKGRFTISRDNAKNTLYLQMNSLRPEDTAVYWCATDEEYALGPNEFDYYGQGTLVTVSS
2 | 85 | 32 | CIgG4B3A1(G4S)2 (Fc fusion, also called CIgG4B3A1(GS)2) chain 1: GPPCPPCPAPEFLGGPSVFLFPPKPKDTLMISRTPEVTCVVVDVSQEDPEVQFNWYVDGVEVHNAKTKPREEQFNSTYRVVSVLTVLHQDWLNGKEYKCKVSNKGLPSSIEKTISKAKGQPREPQVYTLPPCQEEMTKNQVSLWCLVKGFYPSDIAVEWESNGQPENNYKTTPPVLDSDGSFFLYSRLTVDKSRWQEGNVFSCSVMHEALHNHYTQKSLSLSLGKGGGGSGGGGSDVQLQESGGGLVQAGGSLRLSCAASGFIFRLAGMSWVRQAPGKGFEWVSGITMDGSTTNYADSVKGRFTISRDNSKNRLYLQMNSLKPEDTAVYYCARGAKGGYNDPRGQGTQVTVS chain 2: GPPCPPCPAPEFLGGPSVFLFPPKPKDTLMISRTPEVTCVVVDVSQEDPEVQFNWYVDGVEVHNAKTKPREEQFNSTYRVVSVLTVLHQDWLNGKEYKCKVSNKGLPSSIEKTISKAKGQPREPQVCTLPPSQEEMTKNQVSLSCAVKGFYPSDIAVEWESNGQPENNYKTTPPVLDSDGSFFLVSRLTVDKSRWQEGNVFSCSVMHEALHNHYTQKSLSLSLGKGGGGSGGGGSEVQLLESGGGLVQPGGSLRLSCAASGFTFGNYDMAWVRQAPGKRPEWVSSIDTGGDITHYADSVKGRFTISRDNAKNTLYLQMNSLRPEDTAVYWCATDEEYALGPNEFDYYGQGTLVTVSS
3 | > 95 | 30 | CIgG4D1A1(G4S)2 (Fc fusion) chain 1: GPPCPPCPAPEFLGGPSVFLFPPKPKDTLMISRTPEVTCVVVDVSQEDPEVQFNWYVDGVEVHNAKTKPREEQFNSTYRVVSVLTVLHQDWLNGKEYKCKVSNKGLPSSIEKTISKAKGQPREPQVYTLPPCQEEMTKNQVSLWCLVKGFYPSDIAVEWESNGQPENNYKTTPPVLDSDGSFFLYSRLTVDKSRWQEGNVFSCSVMHEALHNHYTQKSLSLSLGKGGGGSGGGGSDVQLQESGGGLVQAGGSLRLSCAASGLTFSRCDMGWFRQAPGKEREFVARISANGASTHYADFVKGRFTISRDNAKNTVYLQMNYLKPEDTAVYICAAARVPVTWQLYDYWGQGTQVTVS chain 2: GPPCPPCPAPEFLGGPSVFLFPPKPKDTLMISRTPEVTCVVVDVSQEDPEVQFNWYVDGVEVHNAKTKPREEQFNSTYRVVSVLTVLHQDWLNGKEYKCKVSNKGLPSSIEKTISKAKGQPREPQVCTLPPSQEEMTKNQVSLSCAVKGFYPSDIAVEWESNGQPENNYKTTPPVLDSDGSFFLVSRLTVDKSRWQEGNVFSCSVMHEALHNHYTQKSLSLSLGKGGGGSGGGGSEVQLLESGGGLVQPGGSLRLSCAASGFTFGNYDMAWVRQAPGKRPEWVSSIDTGGDITHYADSVKGRFTISRDNAKNTLYLQMNSLRPEDTAVYWCATDEEYALGPNEFDYYGQGTLVTVSS

The next lines start with the binder.

Row | Binder | Max effect [%] | EC50 [nM]
4 | CIgG4B3A1(G4S)1 (Fc fusion, also called CIgG4B3A1(GS)1) chain 1: GPPCPPCPAPEFLGGPSVFLFPPKPKDTLMISRTPEVTCVVVDVSQEDPEVQFNWYVDGVEVHNAKTKPREEQFNSTYRVVSVLTVLHQDWLNGKEYKCKVSNKGLPSSIEKTISKAKGQPREPQVYTLPPCQEEMTKNQVSLWCLVKGFYPSDIAVEWESNGQPENNYKTTPPVLDSDGSFFLYSRLTVDKSRWQEGNVFSCSVMHEALHNHYTQKSLSLSLGKGGGGSDVQLQESGGGLVQAGGSLRLSCAASGFIFRLAGMSWVRQAPGKGFEWVSGITMDGSTTNYADSVKGRFTISRDNSKNRLYLQMNSLKPEDTAVYYCARGAKGGYNDPRGQGTQVTVS chain 2: GPPCPPCPAPEFLGGPSVFLFPPKPKDTLMISRTPEVTCVVVDVSQEDPEVQFNWYVDGVEVHNAKTKPREEQFNSTYRVVSVLTVLHQDWLNGKEYKCKVSNKGLPSSIEKTISKAKGQPREPQVCTLPPSQEEMTKNQVSLSCAVKGFYPSDIAVEWESNGQPENNYKTTPPVLDSDGSFFLVSRLTVDKSRWQEGNVFSCSVMHEALHNHYTQKSLSLSLGKGGGGSEVQLLESGGGLVQPGGSLRLSCAASGFTFGNYDMAWVRQAPGKRPEWVSSIDTGGDITHYADSVKGRFTISRDNAKNTLYLQMNSLRPEDTAVYWCATDEEYALGPNEFDYYGQGTLVTVSS | 45 | –
5 | CIgG4D1A1(G4S)1 (Fc fusion) chain 1: GPPCPPCPAPEFLGGPSVFLFPPKPKDTLMISRTPEVTCVVVDVSQEDPEVQFNWYVDGVEVHNAKTKPREEQFNSTYRVVSVLTVLHQDWLNGKEYKCKVSNKGLPSSIEKTISKAKGQPREPQVYTLPPCQEEMTKNQVSLWCLVKGFYPSDIAVEWESNGQPENNYKTTPPVLDSDGSFFLYSRLTVDKSRWQEGNVFSCSVMHEALHNHYTQKSLSLSLGKGGGGSDVQLQESGGGLVQAGGSLRLSCAASGLTFSRCDMGWFRQAPGKEREFVARISANGASTHYADFVKGRFTISRDNAKNTVYLQMNYLKPEDTAVYICAAARVPVTWQLYDYWGQGTQVTVS chain 2: GPPCPPCPAPEFLGGPSVFLFPPKPKDTLMISRTPEVTCVVVDVSQEDPEVQFNWYVDGVEVHNAKTKPREEQFNSTYRVVSVLTVLHQDWLNGKEYKCKVSNKGLPSSIEKTISKAKGQPREPQVCTLPPSQEEMTKNQVSLSCAVKGFYPSDIAVEWESNGQPENNYKTTPPVLDSDGSFFLVSRLTVDKSRWQEGNVFSCSVMHEALHNHYTQKSLSLSLGKGGGGSEVQLLESGGGLVQPGGSLRLSCAASGFTFGNYDMAWVRQAPGKRPEWVSSIDTGGDITHYADSVKGRFTISRDNAKNTLYLQMNSLRPEDTAVYWCATDEEYALGPNEFDYYGQGTLVTVSS | 90 | 52
6 | CIgG4D1A1(RS) (Fc fusion) chain 1: GPPCPPCPAPEFLGGPSVFLFPPKPKDTLMISRTPEVTCVVVDVSQEDPEVQFNWYVDGVEVHNAKTKPREEQFNSTYRVVSVLTVLHQDWLNGKEYKCKVSNKGLPSSIEKTISKAKGQPREPQVYTLPPCQEEMTKNQVSLWCLVKGFYPSDIAVEWESNGQPENNYKTTPPVLDSDGSFFLYSRLTVDKSRWQEGNVFSCSVMHEALHNHYTQKSLSLSLGKRSDVQLQESGGGLVQAGGSLRLSCAASGLTFSRCDMGWFRQAPGKEREFVARISANGASTHYADFVKGRFTISRDNAKNTVYLQMNYLKPEDTAVYICAAARVPVTWQLYDYWGQGTQVTVS chain 2: GPPCPPCPAPEFLGGPSVFLFPPKPKDTLMISRTPEVTCVVVDVSQEDPEVQFNWYVDGVEVHNAKTKPREEQFNSTYRVVSVLTVLHQDWLNGKEYKCKVSNKGLPSSIEKTISKAKGQPREPQVCTLPPSQEEMTKNQVSLSCAVKGFYPSDIAVEWESNGQPENNYKTTPPVLDSDGSFFLVSRLTVDKSRWQEGNVFSCSVMHEALHNHYTQKSLSLSLGKRSEVQLLESGGGLVQPGGSLRLSCAASGFTFGNYDMAWVRQAPGKRPEWVSSIDTGGDITHYADSVKGRFTISRDNAKNTLYLQMNSLRPEDTAVYWCATDEEYALGPNEFDYYGQGTLVTVSS | 30 | –
7 | CIgG4B3A1(G4S)3 (Fc fusion, also called CIgG4B3A1(GS)3) chain 1: GPPCPPCPAPEFLGGPSVFLFPPKPKDTLMISRTPEVTCVVVDVSQEDPEVQFNWYVDGVEVHNAKTKPREEQFNSTYRVVSVLTVLHQDWLNGKEYKCKVSNKGLPSSIEKTISKAKGQPREPQVYTLPPCQEEMTKNQVSLWCLVKGFYPSDIAVEWESNGQPENNYKTTPPVLDSDGSFFLYSRLTVDKSRWQEGNVFSCSVMHEALHNHYTQKSLSLSLGKGGGGSGGGGSGGGGSDVQLQESGGGLVQAGGSLRLSCAASGFIFRLAGMSWVRQAPGKGFEWVSGITMDGSTTNYADSVKGRFTISRDNSKNRLYLQMNSLKPEDTAVYYCARGAKGGYNDPRGQGTQVTVS chain 2: GPPCPPCPAPEFLGGPSVFLFPPKPKDTLMISRTPEVTCVVVDVSQEDPEVQFNWYVDGVEVHNAKTKPREEQFNSTYRVVSVLTVLHQDWLNGKEYKCKVSNKGLPSSIEKTISKAKGQPREPQVCTLPPSQEEMTKNQVSLSCAVKGFYPSDIAVEWESNGQPENNYKTTPPVLDSDGSFFLVSRLTVDKSRWQEGNVFSCSVMHEALHNHYTQKSLSLSLGKGGGGSGGGGSGGGGSEVQLLESGGGLVQPGGSLRLSCAASGFTFGNYDMAWVRQAPGKRPEWVSSIDTGGDITHYADSVKGRFTISRDNAKNTLYLQMNSLRPEDTAVYWCATDEEYALGPNEFDYYGQGTLVTVSS | 95 | 5.4
8 | CIgG4D1A1(G4S)3 (Fc fusion) chain 1: GPPCPPCPAPEFLGGPSVFLFPPKPKDTLMISRTPEVTCVVVDVSQEDPEVQFNWYVDGVEVHNAKTKPREEQFNSTYRVVSVLTVLHQDWLNGKEYKCKVSNKGLPSSIEKTISKAKGQPREPQVYTLPPCQEEMTKNQVSLWCLVKGFYPSDIAVEWESNGQPENNYKTTPPVLDSDGSFFLYSRLTVDKSRWQEGNVFSCSVMHEALHNHYTQKSLSLSLGKGGGGSGGGGSGGGGSDVQLQESGGGLVQAGGSLRLSCAASGLTFSRCDMGWFRQAPGKEREFVARISANGASTHYADFVKGRFTISRDNAKNTVYLQMNYLKPEDTAVYICAAARVPVTWQLYDYWGQGTQVTVS chain 2: GPPCPPCPAPEFLGGPSVFLFPPKPKDTLMISRTPEVTCVVVDVSQEDPEVQFNWYVDGVEVHNAKTKPREEQFNSTYRVVSVLTVLHQDWLNGKEYKCKVSNKGLPSSIEKTISKAKGQPREPQVCTLPPSQEEMTKNQVSLSCAVKGFYPSDIAVEWESNGQPENNYKTTPPVLDSDGSFFLVSRLTVDKSRWQEGNVFSCSVMHEALHNHYTQKSLSLSLGKGGGGSGGGGSGGGGSEVQLLESGGGLVQPGGSLRLSCAASGFTFGNYDMAWVRQAPGKRPEWVSSIDTGGDITHYADSVKGRFTISRDNAKNTLYLQMNSLRPEDTAVYWCATDEEYALGPNEFDYYGQGTLVTVSS | > 95 | 14
